Data on 40 sequences can be found in the nanobody polyreactivity screen of Harvey et al. (2022).

This series can be described thus: yeast display, Sf9 membrane polyspecificity reagent, FACS + sequencing; frameworks hold sequencing errors. The essentials:
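Galactose-induced (36–48 hours) yeast carrying a synthetic nanobody display library were exposed to 10% biotinylated, detergent-solubilized Sf9 membrane reagent at 4 °C for 1 hour. FACS followed streptavidin microbead enrichment, using low and high (top ~1%) gates for expression (anti-HA) and reagent binding (streptavidin). Colony PCR, MiSeq 2 × 250 sequencing and CDR-length filtering followed. Labels for polyreactivity reflect the gate of origin.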
With “QVQLEESGGGLVQAGGSLRLSCAASGSTIKTYATMGWYRQAHGKERELVAAITSGSSTNYADSVKGRFTISRDTAMNTDYLQMNSLKPEDTAVYYGAADDYYNWYLGEPGDYLGQGTQVTVSS”, the “polyreactivity (PSR sort gate)” value is recorded as “low polyreactivity”.

As to “QVQLVESGGGLVQAGGSLRLSCAASGRTFYTYVMGWYRQAPGKEREFVAAITYSGGSTYYADSVKGRFTISRDNAKNTVYLQMNSLKPEDTAVYYCNDEWTYSEWYGQYLEFDYWGQGTQVTVSS”, the “polyreactivity (PSR sort gate)” value was “high polyreactivity”.

Consider “QVQLVESGGGLVQAGGSLRLSCAASGSIFTSYAMGWYRQAPGKERELVAAIDWSGGTTYYADSVKGRFTISRDNAKNPVYLQMNSLKPEDTAVYNRAADIYKYTVGSYDYWGQGTQVTVSS”, for which the “polyreactivity (PSR sort gate)” value was “low polyreactivity”.

With “QVQLVESVGGLVQEGGSLRLSCDASGSIFLYAMGWYRQAPGKERELVAAINRGGGSTYYADSVKGRFTISRDNAKNTVYLEMNSLKPEVTAVYYCAVVYLLPRYWWRYDYWGQGTQVTVSS”, the “polyreactivity (PSR sort gate)” value is “low polyreactivity”.

Turning to “QVQLVESGGGLVQAGGSLRLSCAASGRIFAPYAMGWYRQAPGKERELVAAIDGSGGSTYYADSVKGRFTISRDNAKNTVYLQMNSLKPEDTAVYYCATRGSYRSQRWYGYWGQGTQVTVSS”, the “polyreactivity (PSR sort gate)” value is listed as “high polyreactivity”.

For the sequence “QVQLVESGGGLVQAGGSLRLSSAASGFICATYSMGWYRQAPGKERELVASIRKSGGSTYYADSVKGRFTISRDNAKNTVYLQMNSLKPEDTAVYYCAKVYRYYPKYNYWGQGTQVTVSS”, the “polyreactivity (PSR sort gate)” value is on record as “high polyreactivity”.

“QVQLVESGGGLVQAGGRLRLSCAASGRIFVQYVMGWYRQAPGKERELVAAITGSDSTTYYADSVKGRFTISRDNAKNTVYLQMNSLKPEDTAVYYCNKDLWLQDDYWGQGTQVTVSS”: the “polyreactivity (PSR sort gate)” value is “low polyreactivity”.

With “QVQLVESGGGLVQAGGSLRLSCAASGRTFWNYAMGWYRQATGKERELVAVIRFSDGSTYYADSVKGRFTISRDNAKNTVYLQMNSLKPEDTAVYYCAAKGPRRWGSGFDYWGQGTQVTVSS”, the “polyreactivity (PSR sort gate)” value is “low polyreactivity”.

For the sequence “QVQLVESGGGLVQAGGSLRLSCADSGSIFFPYAMGWYRQAPGKERYLVAAISSGTSTYYADSVKGRFTISRDNAKNTVYLQMNSLKPEDTAVFYCNARHRRGRFTHDYDYWGQGTQVTVSS”, the “polyreactivity (PSR sort gate)” value was “low polyreactivity”.

With “QVQLVESGGGLVQAGGSLRLSCAASGRIFRRYAMGWNRQAPGKEMELVAAISRSGGSTYYADSVKGRFTISRDNAKNTVYLQMNSLKPEDTAVYYCNRRYITYNYDYWGQGTQVTVSS”, the “polyreactivity (PSR sort gate)” value is listed as “high polyreactivity”.

With “QVQLVESGGGLVQAGGSLRLSCAASGSIYYNAMGWYRQAPGKERELVAAISTSGGTTYYADSVKGRFTISRDNAKNTVYLQMNSLKPEDTAVYYCNALSVPDYDYWGQGTQVTVSS”, the “polyreactivity (PSR sort gate)” value is recorded as “high polyreactivity”.

Regarding “QVQHVESGGGLVQAGVSLRLSCAASGSIFVYYAMGWYRQAPGKERELVASISESDGSTSYADSVKGRFTISRDNAMNTVYLQMNSLKPEDTAVSYCAADPYFYWYSPSFDYWGQGTQVTVSS”, the “polyreactivity (PSR sort gate)” value is reported as “low polyreactivity”.

Turning to “QVQLVESGGGLVQAGGSLRLSCAASGRTFSINAMGWYSQAPGKERELVAAISYTGGSTYYADSVKGRFTISRDNAKNTVYLQMNSLKPEDTAVYYCAASSSRTYYGRYYYWGQGTQVTVSS”, the “polyreactivity (PSR sort gate)” value was “high polyreactivity”.

In the case of “QLQLVESGGGLVQAGGSLRLSCAASGRTSRRYAMGWYRQAPGKERELVAAIRGSGGSTYYADSVKGRFTISRDNAKNTVYLQMNSLKPEDTAVYYCAADWSFWSLAYPSAKFYAEFDYWGQGTQVTVSS”, the “polyreactivity (PSR sort gate)” value is recorded as “high polyreactivity”.

Take “QDQLVESGGGLVQAGGSLRLSCAASGNIFPSYVMGWYRQAPGKERELVAAITWKGGSTYYADSVKGRFTISRDNAKNTVYLQMNSLKPEDTAVYYCNAVGNLYSRDDYWGQGTQVTVSS”: the “polyreactivity (PSR sort gate)” value is recorded as “low polyreactivity”.

With “QVQLVESGGGLVQAGGSLRLSSAASGRTFHSYARGWYRQSPGKERELVAGMSWGGTRTTYADSVKGRFTLSRDNAKNTVYLQMNSLKPEDTADYYCNAVYYALGRSPPDYGYWGQGTQVTVSS”, the “polyreactivity (PSR sort gate)” value was “low polyreactivity”.

“QVQLVESGGGLVQAGGSLRLSCAPSGRIFFYYVMGWYRQAPGKERELVAAITRSGGSTYYADSVKGRFTISRDNAKNTVYLQMNSLKPEDTAVYYCAVGDGFEFDWGQGTQVTVSS”: the “polyreactivity (PSR sort gate)” value is listed as “low polyreactivity”.

With “QVQLVESGGGLVQAGGSLRLSCAASGSILGGNAMGWYRQAPGKERELVAAITFSGGGTYYADSVKGRFTISRDNGKNTVYLQMNSLKPEDTALYNCAADKDGYTYEFDYWGQGTQVTVSS”, the “polyreactivity (PSR sort gate)” value was “low polyreactivity”.

With “QVQLQESGGGLVQAGGSLSLSCAESGTISFTRDMVWYRQAPGKEREFVASIDRGASTYYADSVKGRFTISRDNAKNTVYLQMNSLKPEDSAVYYKAVIAPFYSSFAYWGQGTQVTVSS”, the “polyreactivity (PSR sort gate)” value is “high polyreactivity”.

As for “QVQLVETGGGLVQAGGSLRLSCAASGRIFKRNTMGWYRQAPGKEREFVASITFSGGSTNYADSVKGRFTISRDNAKNTVYLQMNSLKPEDTAVYYCAARDYHYSTYDYWGQGTQVTVSS”, the “polyreactivity (PSR sort gate)” value is reported as “low polyreactivity”.

On to “QVQLVESGGGLVKAGGSLRLSCAAYGFTIVYYAMGWYIQEHGKERELVAAISATGGRTYYADSVKGRFTISRDNAKNTVYLQMNSLKPEDTAVYYCATRRRVLYGYDYWGQGTQVTVSS”, for which the “polyreactivity (PSR sort gate)” value is “high polyreactivity”.

Consider “QVQLVESWGGLVQAGGSLRLSCAASGRTFHSYAMGWYRQAPGKERELVAAITSSGGSTYYADSVKGRFTISRDNAKNTVYLQMNSLKPEDTAVYYCAAPYRYLSRGGEMGYWGQGTQVTVSS”, for which the “polyreactivity (PSR sort gate)” value is reported as “high polyreactivity”.

Take “QVQLVESGGGLVQAGGSLRLSCAASGSNFGEYAMGWYRQAPGKERELVAAITSGGNTYYADSVKGRFTISRDNAKNTVYLQMNSLKPEDTAVYYCAATRTRYWGGDYWGQGTQVTVSS”: the “polyreactivity (PSR sort gate)” value is “low polyreactivity”.

With “QVQLLESGVGLVQAGGSLRLSCAASGTIFVDYAMGWYRQAPGKERQLVAAITSVGRTNYADSVKGRFTISRDNAKNTVYLQMNSLKPEDTAVYYCNKTRYTNYYTTTFDYWGQGTQVTVSS”, the “polyreactivity (PSR sort gate)” value is “low polyreactivity”.

Consider “QFQIVDSVRGLVQAGGSLRLSCAASGITFDFYAIGWYRQAPGKERELVAAISYSGTSTSYADSVKGRFTISRDNAKNTVYLQMNSLKAEDTAVYYCNARIGWTHSYYELDYWGQGTQVTVSS”, for which the “polyreactivity (PSR sort gate)” value is “low polyreactivity”.

For “QVQLVESGGGLVQAGGSLSLSCAASGSIFWYNAMGWYRQAPGKERELVAGITSGGDTNYADSVKGRFTISRDNAKNTFYLQMNSLKPEDTAVYYCNTPSGPGNVGYYRRKWYGYWGQGTQVSVSS”, the “polyreactivity (PSR sort gate)” value was “low polyreactivity”.

“QVQLVESGGGLVQAGGSLRLSCAASGRIFSRYAMGWYRQAPGKERELVAIISSGDSTNYADSVKGRFTISRDNAKNTVYLQMNSLKPEDTAVYYCAAANWGTPPYDDWGQGTQVTVSS”: the “polyreactivity (PSR sort gate)” value is “low polyreactivity”.

“QVQLVESGGGLVQAGGRLRISCAASGSTFQPYAMGWYRQAPGKERELVAAISWRGGSTYYADSVKGRFTISRDNAKNTVYLQMNSLKPEDTAVSYCAAYFYFRRGTDYDYWGQGTQVTVSS”: the “polyreactivity (PSR sort gate)” value is given as “high polyreactivity”.

For “QVQLVESGGGLVQAGGSLRLSCAASGRTFYVYAMGWYRQAPGKERELVAAISKSGGSTYYADSVKGRFTISRDNAKNTVYLQMNSLKPEDTAVYYCAARKSDPRTKLYNYWGQGTQVTVSS”, the “polyreactivity (PSR sort gate)” value is “high polyreactivity”.

Take “QVQLVESGGGLVQAGGSLRLSCAASGSTFDKYAMGWYRQAPGKERELVAAISSGSSTSYADSVKGRFTISRDNAKNTVYLQMNSLKPEDTAVYYCAAEVAESIEDDYWGQGTQVTVSS”: the “polyreactivity (PSR sort gate)” value was “low polyreactivity”.

Take “QVQLVESGGGLVQAGGSLRLSCAASGRILTSNAMGWYRQAPGTEMELVAAISWSGGSTYYADSVKGRFTISRDNAKNTVYLQMNSLKPEDTAVYYCAAVSYYASDYRYDYWGQGTQVTVSS”: the “polyreactivity (PSR sort gate)” value is “low polyreactivity”.

With “QVQHVESGGGLVQAGGSLRLSCAASGGIFYPNAMGWYRQAPGKERELVAAISSGGGSTYYADSVKGRFTISRDNAKNTVYLQMNSLKPEDTSGYYCAASADRLKSDVESDYWGQGTLVTVSS”, the “polyreactivity (PSR sort gate)” value is “low polyreactivity”.

For the sequence “QVQLVESGGGLVQAGGSLSLSCAASGRTFYRNAMGWYRQAPGKERELVAAISSDDSTNYADSVKGRFTISRDNAKNTVYLQMNSLKPEDTAVYYCNADYYYGYEYDYWGQGTQVTVSS”, the “polyreactivity (PSR sort gate)” value is listed as “low polyreactivity”.

“QVQLVESGGGLVQAGGSLRLSCAASGFTFYLYTMGWYRQAPGKERELVASLTGSGGSTYYADSVKGRFTISRDNAKNTVYLQMHSLKPEDTAVYYCNARYYVYSATVDRYYHFYYWGQGTQVTVSS”: the “polyreactivity (PSR sort gate)” value is reported as “high polyreactivity”.

Regarding “QVQLVDSGGGLVQAGGSLRFSCAASGRTSNVYAMGWFRQAPGKERELVAAISARDGTTYNADSVKGRFTISRDNAKNTVYLQMNSLKPEDTAVYYCAAAVLSYADYYYDYEYWGQGTQVTVSS”, the “polyreactivity (PSR sort gate)” value is given as “high polyreactivity”.

“QVQLVESGGGLVQAGGSLRLSCAASGSIFVFYAMGWYRQAPGKERELVASITSSGGSTYYADSVKGRFTISRDNAKNTVYLQMNSLKPEDTAVYYCAARKYRNPYYYRYYYWGQGTQVTVSS”: the “polyreactivity (PSR sort gate)” value is on record as “high polyreactivity”.

On to “QVQLVESGGGLVQAGGSLRLSCAASGSIFKFYTMGWYRQAPGKERELVAAISSSDGSTHYADSVKGRFTISRDNAKNTVYLQMNSLKPEDTAVYYCARRRYSRYSVTRGNYWGQGTQVTVSS”, for which the “polyreactivity (PSR sort gate)” value is listed as “high polyreactivity”.

As for “QVQLVESGGGLVQAGGSLRLSCAASGRIFSIYAMGWYRQAPGKERELVAAISKRGGSTSYADSVKGRFTISRDNAKNTVYLQMNSLKPEDTAVYYCNARGWIPARGWDDYYWGQGTQVTVSS”, the “polyreactivity (PSR sort gate)” value was “high polyreactivity”.

“QVQLVESGGGLVEAGGSLRLSCAAGGRIVDRYAMGWYRQAPGKEREVVAAISDRGGSTYYADSVKGRFTISRDNAKNTVYLQMNSLKPEDTAVYYCNKVYGWYSFTWGPTASDYWGQGTQVTVSS”: the “polyreactivity (PSR sort gate)” value was “low polyreactivity”.

As for “QVQLVESGGGLVQAGGSLRLSCAASGSIIYSYAMGWYRQAPGKERELVAAISTSAGTTYYADSVKGRFTISRDNAKNTVYLQMNSLKPEDTAVYYCATQVWSHKYWYYYWGQGTQVTVSS”, the “polyreactivity (PSR sort gate)” value is on record as “high polyreactivity”.
